Results as given in patent publication US20180333502A1.

Biological target: activated human CD4 T cells (GITR) (human) (UniProt Q9Y5U5)
Assay: FACS binding to activated human CD4 T cells; isotype control

activated human CD4 T cells (GITR) (human), sequence (Q9Y5U5 26-241): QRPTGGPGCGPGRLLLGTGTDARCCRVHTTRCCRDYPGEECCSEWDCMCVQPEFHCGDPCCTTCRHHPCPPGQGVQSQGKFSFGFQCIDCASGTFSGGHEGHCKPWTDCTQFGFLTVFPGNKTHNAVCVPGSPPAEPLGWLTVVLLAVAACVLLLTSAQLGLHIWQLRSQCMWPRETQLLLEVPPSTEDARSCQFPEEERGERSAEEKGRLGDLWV

| Substance | EC50 |
| --- | --- |
| unrelated hIgG2 | 0.00673 µM |
| unrelated hIgG1 | 0.132 µM |
